These results are taken from patent US20250179197A1 (DIAGONAL THERAPEUTICS, published 2025).

What all share (assay): cell-based or functional assay
Test [1] addresses T1, IL-18 receptor (IL-18Rα and IL-18Rβ) on HEK-Blue IL-18 cells (UniProt Q13478 19-541; O95256 20-599, limits assumed).
T1 sequence (looked up) 1: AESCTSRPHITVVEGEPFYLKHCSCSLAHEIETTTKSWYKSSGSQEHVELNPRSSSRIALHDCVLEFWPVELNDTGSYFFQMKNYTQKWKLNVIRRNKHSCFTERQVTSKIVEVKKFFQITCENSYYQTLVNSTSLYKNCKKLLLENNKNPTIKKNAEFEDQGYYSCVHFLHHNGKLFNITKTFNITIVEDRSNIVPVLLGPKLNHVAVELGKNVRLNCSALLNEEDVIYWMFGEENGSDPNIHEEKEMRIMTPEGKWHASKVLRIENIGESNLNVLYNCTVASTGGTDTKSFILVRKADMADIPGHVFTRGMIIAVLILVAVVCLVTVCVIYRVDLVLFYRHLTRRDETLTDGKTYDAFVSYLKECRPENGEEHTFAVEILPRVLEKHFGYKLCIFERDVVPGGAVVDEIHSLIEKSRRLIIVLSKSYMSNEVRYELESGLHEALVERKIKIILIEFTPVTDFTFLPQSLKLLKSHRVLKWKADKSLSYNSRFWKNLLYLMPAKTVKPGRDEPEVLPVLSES
T1 sequence (looked up) 2: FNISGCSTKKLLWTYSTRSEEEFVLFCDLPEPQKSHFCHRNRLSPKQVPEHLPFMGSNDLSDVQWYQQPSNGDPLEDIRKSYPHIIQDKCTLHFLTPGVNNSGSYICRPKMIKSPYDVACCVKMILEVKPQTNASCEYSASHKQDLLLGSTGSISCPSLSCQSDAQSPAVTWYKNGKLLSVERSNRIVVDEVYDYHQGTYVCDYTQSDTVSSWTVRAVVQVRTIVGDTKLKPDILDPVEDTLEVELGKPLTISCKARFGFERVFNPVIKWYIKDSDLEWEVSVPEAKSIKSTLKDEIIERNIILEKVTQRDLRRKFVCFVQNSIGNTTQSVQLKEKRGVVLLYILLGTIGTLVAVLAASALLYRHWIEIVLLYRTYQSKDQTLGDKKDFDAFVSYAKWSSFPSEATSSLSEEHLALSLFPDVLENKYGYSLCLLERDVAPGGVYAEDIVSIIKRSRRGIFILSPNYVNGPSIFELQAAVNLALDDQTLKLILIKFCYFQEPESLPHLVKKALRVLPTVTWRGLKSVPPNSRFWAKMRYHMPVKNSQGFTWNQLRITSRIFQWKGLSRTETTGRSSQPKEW

The target of test [2] is T2, IL-18 receptor (IL-18Rα/IL-18Rβ) on human PBMCs (human, UniProt Q13478 19-541; O95256 20-599).
T2 sequence (looked up) 1: T1 sequence (looked up) 1
T2 sequence (looked up) 2: T1 sequence (looked up) 2

Test [3] has as its target T1, IL-18 receptor (IL-18Rα and IL-18Rβ) on …. The source holds these as a separate data set.

B1: DGL336 (bispecific antibody, V domains shown)
V domain 1: EVQLLESGGGLVQPGGSLRLSCAASGRTFSKHAMGWFRQAPGKGLEFVSAIDWSGGSTYYADSVKGRFTISRDNSKNTVYLQMNSLRAEDTAVYYCAADSYTDYAQLWLPELESEYDYWGQGTLVTVSS
V domain 2: EVQLVESGGGLIQPGGSLRLSCAASGSISSRDTMGWYRQAPGKGREMVSVISSSGNTNYADSVLGRFTISRDNAKNTVYLQMNALRAEDTAVYKCYAHRTYGVDYWGQGTLVTVSS
In the case of B1, in test [1], the “HEK-Blue: Abs 405 at 100 nM” value is 0.9 absorbance and the “HEK-Blue: Fold over background” value worked out at 4.9 fold. For the same molecule, in test [2], the “Calculated maximum induction of IFN-γ after 24 hours, donor 1” value (“Calculated maximum induction … donor 1” for short) is 13000; the “Calculated maximum induction of IFN-γ after 24 hours, donor 2” value (“Calculated maximum induction … donor 2” for short) is 620; the “Calculated maximum induction of IFN-γ after 24 hours, donor 3” value (“Calculated maximum induction … donor 3” for short) is 17000; the “Calculated maximum induction of IFN-γ after 24 hours, donor 4” value (“Calculated maximum induction … donor 4” for short) is 9300. Further, in test [2], the “Calculated maximum induction of IFN-γ after 24 hours, donor 5” value (“Calculated maximum induction … donor 5” for short) was 1500 and the “Calculated maximum induction of IFN-γ after 24 hours, donor 6” value (“Calculated maximum induction … donor 6” for short) is 1300.

B2: DGL620 (bispecific antibody)
chain 1: EVQLLESGGGLVQPGGSLRLSCAASGRTFSKHAMGWFRQAPGKGLEFVSAIDWSGGSTYYADSVKGRFTISRDNSKNTVYLQMNSLRAEDTAVYYCAADSYTDYAQLWLPELESEYDYWGQGTLVTVSSCPPCPAPEAAGAPSVFLFPPKPKDTLYITREPEVTCVVVDVSHEDPEVKFNWYVDGVEVHNAKTKPREEQYNSTYRVVSVLTVLHQDWLNGKEYKCKVSNKALPAPIEKTISKAKGQPREPQVCTLPPSRDELTKNQVSLSCAVKGFYPSDIAVEWESNGQPENNYKTTPPVLDSDGSFFLVSKLTVDKSRWQQGNVFSCSVMHEALHNHYTQKSLSLSPG
chain 2: QLQLLESGGGLVQAGGSLRLSCAASRSITFSHNVMGWYRQAPGKGRELVSSIGSGGSTNYVDSVKGRFTISRDNSKKTLYLQMNSLRAEDTAVYYCGVVVGVYRGSLGQGTLVTVSSCPPCPAPEAAGAPSVFLFPPKPKDTLYITREPEVTCVVVDVSHEDPEVKFNWYVDGVEVHNAKTKPREEQYNSTYRVVSVLTVLHQDWLNGKEYKCKVSNKALPAPIEKTISKAKGQPREPQVYTLPPCRDELTKNQVSLWCLVKGFYPSDIAVEWESNGQPENNYKTTPPVLDSDGSFFLYSKLTVDKSRWQQGNVFSCSVMHEALHNHYTQKSLSLSPG
A word on the EC50 (read off the curve): it is the concentration giving half of the maximal effect. Take B2: in test [1], the “HEK-Blue: Abs 405 at 100 nM” value was found to be 1.87 absorbance and the “HEK-Blue: Fold over background” value was 10.1 fold. Further, the 50% effective concentration (EC50 (read off the curve)) in test [3] was about 1 nM. In test [2], the “Calculated maximum induction … donor 1” value is 16000; the “Calculated maximum induction … donor 2” value is 1300; the “Calculated maximum induction … donor 3” value was 22000; the “Calculated maximum induction … donor 4” value was 19000. Moreover, in test [2], the “Calculated maximum induction … donor 5” value is 15000 and the “Calculated maximum induction … donor 6” value was 2400.

B3: DGL346 (bispecific antibody)
chain 1: EVQLVESGGGLIQPGGSLRLSCAASGSISSRDTMGWYRQAPGKGREMVSVISSSGNTNYADSVLGRFTISRDNAKNTVYLQMNALRAEDTAVYKCYAHRTYGVDYWGQGTLVTVSSGGGSQVQLVESGGGLVQPGGSLRLSCAASGRTFSSYTMGWFRQAPGKGREFVSAISWSAGRTYYADSVKGRFTISRDNAKNTVYLQMNALRAEDTAVYYCAAEEAPDWAPIDCSGYGCLSLYDYWGQGTLVTVSDKTHTCPPCPAPEAAGAPSVFLFPPKPKDTLYITREPEVTCVVVDVSHEDPEVKFNWYVDGVEVHNAKTKPREEQYNSTYRVVSVLTVLHQDWLNGKEYKCKVSNKALPAPIEKTISKAKGQPREPQVCTLPPSRDELTKNQVSLSCAVKGFYPSDIAVEWESNGQPENNYKTTPPVLDSDGSFFLVSKLTVDKSRWQQGNVFSCSVMHEALHNHYTQKSLSLSPG
chain 2: DKTHTCPPCPAPEAAGAPSVFLFPPKPKDTLYITREPEVTCVVVDVSHEDPEVKFNWYVDGVEVHNAKTKPREEQYNSTYRVVSVLTVLHQDWLNGKEYKCKVSNKALPAPIEKTISKAKGQPREPQVYTLPPCRDELTKNQVSLWCLVKGFYPSDIAVEWESNGQPENNYKTTPPVLDSDGSFFLYSKLTVDKSRWQQGNVFSCSVMHEALHNHYTQKSLSLSPG
Turning to B3, in test [1], the “HEK-Blue: Abs 405 at 100 nM” value was found to be 1.34 absorbance and the “HEK-Blue: Fold over background” value was found to be 7.2 fold. Besides, in test [2], the “Calculated maximum induction … donor 1” value was 16000; the “Calculated maximum induction … donor 2” value was 1700; the “Calculated maximum induction … donor 3” value was 22000; the “Calculated maximum induction … donor 4” value was 17000. In test [2], the “Calculated maximum induction … donor 5” value was 15000 and the “Calculated maximum induction … donor 6” value is 3000.
